Reference: publication PMC12609908

Molecular target: T1, CutR (Mycobacterium sp. strain JC1, UniProt D5G1X9 1-320)
T1 sequence: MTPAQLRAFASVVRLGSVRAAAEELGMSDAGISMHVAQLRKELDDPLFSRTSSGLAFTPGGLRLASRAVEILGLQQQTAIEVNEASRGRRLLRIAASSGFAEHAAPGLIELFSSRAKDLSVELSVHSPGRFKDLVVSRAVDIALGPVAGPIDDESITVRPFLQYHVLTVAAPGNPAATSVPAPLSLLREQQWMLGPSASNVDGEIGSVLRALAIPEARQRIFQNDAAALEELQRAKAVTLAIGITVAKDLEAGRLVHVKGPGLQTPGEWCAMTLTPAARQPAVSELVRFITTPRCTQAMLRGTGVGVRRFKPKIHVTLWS
Experiment: EMSA; no CO; 50 mM Tris-HCl pH 8.0, 100 mM NaCl, 40% glycerol, 5 mM DTT, 2 mM EDTA, 4 °C 1 h; 10% native PAGE in 0.5x TBE at 4 °C
Conditions: protein: recombinant; tags: C-terminal His6; chain copies: 2; label: 5'-biotin (forward strand); blunt

B1: IR2 (29 bp) (dsDNA)
DNA 1: GGGCCAGTTAAGCGATTCCTTAAGGGGGG
DNA 2: CCCCCCTTAAGGAATCGCTTAACTGGCCC
- binding result: binds
